Positions count from the first letter of the chain named. Ends that are not written are not given here. * marks the point of attachment. Palmitoyl = CCCCCCCCCCCCCCCC(=O)*
T1: GLP-1 receptor present in the plasma membranes isolated from RINm5F cells (UniProt P32301 22-463, limits assumed)
T1 sequence (looked up): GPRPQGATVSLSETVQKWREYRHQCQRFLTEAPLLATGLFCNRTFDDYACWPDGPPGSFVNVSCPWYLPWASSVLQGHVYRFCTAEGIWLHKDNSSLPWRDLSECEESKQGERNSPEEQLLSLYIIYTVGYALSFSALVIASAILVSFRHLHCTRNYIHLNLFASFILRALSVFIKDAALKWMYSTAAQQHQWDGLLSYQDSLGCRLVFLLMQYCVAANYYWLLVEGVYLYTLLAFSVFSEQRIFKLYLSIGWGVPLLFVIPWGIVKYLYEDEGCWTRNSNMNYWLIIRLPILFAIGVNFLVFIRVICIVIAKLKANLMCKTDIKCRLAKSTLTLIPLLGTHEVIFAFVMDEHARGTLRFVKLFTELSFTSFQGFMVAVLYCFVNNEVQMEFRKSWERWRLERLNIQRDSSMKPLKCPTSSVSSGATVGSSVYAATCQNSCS

B1: G59 (peptide)
peptide: HSQGTFTSDYARYLDAKKAKEFIAWLVKGRG
B2: G58 (peptide)
peptide: B1 peptide with R12K
B3: G2185 (peptide)
peptide: HSQGTFTSDYARYLDARRAREFIKWLVRGRC(PEG22kD)
B4: G185 (peptide)
peptide: HSQGTFTSDYARYLDARRAREFIKWLVRGRC
B5: G61 (peptide)
peptide: B1 peptide with K17A
B6: G77 (peptide)
peptide: HSQGTFTSDYAKYLDARRAKEFIAWLVKGRC
B7: G183 (peptide)
peptide: HSQGTFTSDYARYLDARRAK(Palmitoyl)EFIKWLVRGRG
modifications: not fully specified; printed as HSQGTFTSDYARYLDARRAK(FA)EFIKWLVRGRG
B8: G182 (peptide)
peptide: HSQGTFTSDYARYLDARRAREFIKWLVRGRGK(Palmitoyl)
B9: G1 (peptide)
peptide: HSQGTFTSDYSKYLDSRRAQDFVQWLVKGR-NH2
B10: G5 (peptide)
peptide: HSQGTFTSDYSKYLEGQAAKEFIAWLVKGR-NH2
B11: G27 (peptide)
peptide: HSQGTFTSDYAKYLDARRAKEFIAWLVKGR-NH2
B12: G55 (peptide)
peptide: HSQGTFTSDYARYLDARRAKEFIAWLVKGR-NH2
B13: G56 (peptide)
peptide: HSQGTFTSDYAAYLDARRAKEFIAWLVKGR-NH2
B14: G57 (peptide)
peptide: HSQGTFTSDYAKYLDAARAKEFIAWLVKGR-NH2

What follows are binders tested against T1, GLP-1 receptor present in the plasma … (assay: cell-based or functional assay).

Binder	% GLP1 max, cAMP SPA in RINm5F cells [%]	Relative Potency (%), cAMP SPA in RINm5F cells [%]
B1	102	22.7
B2	99	76.1
B3	113	6.2
B4	104	13
B5	96	12.1
B6	92.1	9.5
B7	90.5	0.6
B8	104	1.4
B9	112	6.9
B10	109	69.9
B11	98.1	13.4
B12	116	18.6
B13	115	37.2
B14	132	18.3

Each binder was assayed against T2, glucagon receptor present in the plasma membranes isolated from rat liver (rat, UniProt P30082 27-485) (assay: cell-based or functional assay).
T2 sequence (P30082 27-485): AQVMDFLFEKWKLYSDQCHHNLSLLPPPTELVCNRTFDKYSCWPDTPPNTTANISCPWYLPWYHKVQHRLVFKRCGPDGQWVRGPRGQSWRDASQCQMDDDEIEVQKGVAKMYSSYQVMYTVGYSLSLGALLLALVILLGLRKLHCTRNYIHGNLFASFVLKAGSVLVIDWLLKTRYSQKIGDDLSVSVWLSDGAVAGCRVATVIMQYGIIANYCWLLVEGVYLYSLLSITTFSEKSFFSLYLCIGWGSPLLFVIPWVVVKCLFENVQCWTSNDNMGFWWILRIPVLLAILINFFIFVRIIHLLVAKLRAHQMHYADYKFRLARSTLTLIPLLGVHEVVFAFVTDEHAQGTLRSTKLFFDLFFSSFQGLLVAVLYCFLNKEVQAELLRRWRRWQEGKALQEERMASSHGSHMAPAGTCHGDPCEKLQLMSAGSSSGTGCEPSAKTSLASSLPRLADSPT

Binder	% Inhib glucagon stimulated cAMP increase (10 uM peptide, rat hepatocytes) [%]
B1	41.1
B2	32.6
B4	32
B5	45.2
B6	18.6
B11	31
B12	32.1
B13	28.6
B14	18.4

These binders were tested against T1, GLP-1 receptor present in the plasma … (assay: 125I-GLP-1 displacement, RINm5F plasma membranes).
Procedure: (§1) Competitive binding of some polypeptides of the invention to RINm5F cell plasma membranes was measured as follows. Ninety-six-well GF/C filtration plates (Millipore, Bedford, Ma.) were blocked with 0.3% PEI for at least one hour and washed twice with binding buffer consisting of 20 mM Tris, 2 mM EDTA, pH 7.5, 1 mg/ml BSA, and 1 mg/ml bacitracin. […] The plates were dried, scintillant was added to each well, and cpm per well determined using a Wallac Microbeta counter.

Binder	IC50 [nM]
B1	2.1
B2	6.9
B3	56.1
B4	4.5
B5	10.6
B6	8.9
B7	159
B8	12.6
B9	6
B10	0.5
B11	2.2
B12	9.8
B13	6.6
B14	14.7

The binders below were run against T2, glucagon receptor present in the plasma … (assay: 125I-glucagon displacement, rat liver plasma membranes).
Procedure: as §1, with “rat liver” for “RINm5F cell”, “0.1%” for “0.3%”

Binder	IC50 [nM]
B1	97.5
B2	164
B3	347
B4	48
B5	232
B6	61.1
B7	663
B8	220
B9	6.6
B10	243
B11	69.3
B12	139
B13	125
B14	178

— patent US20040002442A1 (Bayer, published 2004)
